This assay addresses recombinant human TfR1 (human) (UniProt P02786). As to the kind of experiment: SPR (Carterra LSA), IgG captured, TfR1 injected, 25 C.

Chain of recombinant human TfR1 (human) (P02786 89-760 limits assumed): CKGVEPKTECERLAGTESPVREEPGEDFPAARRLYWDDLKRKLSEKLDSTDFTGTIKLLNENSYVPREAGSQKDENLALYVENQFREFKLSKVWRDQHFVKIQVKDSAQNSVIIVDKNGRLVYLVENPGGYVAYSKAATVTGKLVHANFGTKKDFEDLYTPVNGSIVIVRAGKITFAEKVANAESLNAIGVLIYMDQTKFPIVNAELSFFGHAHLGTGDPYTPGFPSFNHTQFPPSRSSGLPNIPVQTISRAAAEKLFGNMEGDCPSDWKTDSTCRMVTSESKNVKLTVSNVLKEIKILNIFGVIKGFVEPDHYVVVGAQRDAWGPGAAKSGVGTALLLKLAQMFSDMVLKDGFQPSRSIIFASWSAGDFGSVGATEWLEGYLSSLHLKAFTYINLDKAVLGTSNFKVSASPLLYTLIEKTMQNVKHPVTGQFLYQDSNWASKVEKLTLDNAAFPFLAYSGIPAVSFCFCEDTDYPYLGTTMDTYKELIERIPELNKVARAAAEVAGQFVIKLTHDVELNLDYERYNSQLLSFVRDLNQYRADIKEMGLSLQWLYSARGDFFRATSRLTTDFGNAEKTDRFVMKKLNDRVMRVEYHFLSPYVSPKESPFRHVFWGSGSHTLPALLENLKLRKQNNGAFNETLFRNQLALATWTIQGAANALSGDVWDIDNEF

In general, Kd refers to the equilibrium constant for the complex coming apart. One may read the kon as the rate constant with which the complex forms. For OKT9 mIgG (control) (antibody), the Kd was 0.536 nM and the kon was determined as 774000 M⁻¹ s⁻¹.

These data come from US20230346966A1.
